Measurements from publication PMC10656227.

How the values were obtained:
[1] = target: collagen IV NC1 domains of the NC1 hexamer from American lobster (American lobster (Homarus americanus)); assay: SDS-PAGE (SDS resistance of the native hexamer); straight collagenase digest of tissue or animals; SDS-PAGE with 150 mM NaCl; sample at room temperature; Western blot with JK2
[2] = target: collagen IV NC1 domains of the NC1 hexamer from American lobster (American lobster (Homarus americanus)); assay: SDS-PAGE (SDS resistance of the native hexamer); straight collagenase digest of tissue or animals; regular SDS-PAGE without Cl^− supplement; sample at room temperature; Western blot with JK2
[3] = target: collagen IV NC1 domains of the NC1 hexamer from Ascaris suum (Ascaris suum); assay: SDS-PAGE (SDS resistance of the native hexamer); purified NC1 hexamer; regular SDS-PAGE without Cl^− supplement; sample at room temperature, not boiled; Coomassie, TCE or Western blot
[4] = target: collagen IV NC1 domains of the NC1 hexamer from Ascaris suum (Ascaris suum); assay: SDS-PAGE (SDS resistance of the native hexamer); purified NC1 hexamer; Tris-glycine SDS-PAGE with 150 mM NaCl in running buffer and sample buffer; sample at room temperature, not boiled; Coomassie, TCE or Western blot
[5] = target: collagen IV NC1 domains of the NC1 hexamer from Caenorhabditis elegans (Caenorhabditis elegans); assay: SDS-PAGE (SDS resistance of the native hexamer); partially purified NC1 hexamer (SEC hexamer fraction); regular SDS-PAGE without Cl^− supplement; sample at room temperature; Western blot with JK2 or TCE in-gel visualization
[6] = target: collagen IV NC1 domains of the NC1 hexamer from Caenorhabditis elegans (Caenorhabditis elegans); assay: SDS-PAGE (SDS resistance of the native hexamer); partially purified NC1 hexamer (SEC hexamer fraction); SDS-PAGE with 150 mM NaCl; sample at room temperature; Western blot with JK2 or TCE in-gel visualization
[7] = target: collagen IV NC1 domains of the NC1 hexamer from brine shrimp (brine shrimp (Artemia salina)); assay: SDS-PAGE (SDS resistance of the native hexamer); straight collagenase digest of tissue or animals; SDS-PAGE with 150 mM NaCl; sample at room temperature; Western blot with JK2
[8] = target: collagen IV NC1 domains of the NC1 hexamer from brine shrimp (brine shrimp (Artemia salina)); assay: SDS-PAGE (SDS resistance of the native hexamer); straight collagenase digest of tissue or animals; regular SDS-PAGE without Cl^− supplement; sample at room temperature; Western blot with JK2
[9] = target: collagen IV NC1 domains of the NC1 hexamer from brown planaria (brown planaria (Dugesia tigrina)); assay: SDS-PAGE (SDS resistance of the native hexamer); partially purified NC1 hexamer (SEC hexamer fraction); regular SDS-PAGE without Cl^− supplement; sample at room temperature; Western blot with JK2 or TCE in-gel visualization
[10] = target: collagen IV NC1 domains of the NC1 hexamer from brown planaria (brown planaria (Dugesia tigrina)); assay: SDS-PAGE (SDS resistance of the native hexamer); partially purified NC1 hexamer (SEC hexamer fraction); SDS-PAGE with 150 mM NaCl; sample at room temperature; Western blot with JK2 or TCE in-gel visualization
[11] = target: collagen IV NC1 domains of the NC1 hexamer from cicada (cicada (Magicicada spp)); assay: SDS-PAGE (SDS resistance of the native hexamer); straight collagenase digest of tissue or animals; SDS-PAGE with 150 mM NaCl; sample at room temperature; Western blot with JK2
[12] = target: collagen IV NC1 domains of the NC1 hexamer from cicada (cicada (Magicicada spp)); assay: SDS-PAGE (SDS resistance of the native hexamer); straight collagenase digest of tissue or animals; regular SDS-PAGE without Cl^− supplement; sample at room temperature; Western blot with JK2
[13] = target: collagen IV NC1 domains of the NC1 hexamer from comb jelly (comb jelly (Mnemiopsis leidyi)); assay: SDS-PAGE (SDS resistance of the native hexamer); partially purified NC1 hexamer (SEC hexamer fraction); regular SDS-PAGE without Cl^− supplement; sample at room temperature; Western blot with JK2 or TCE in-gel visualization
[14] = target: collagen IV NC1 domains of the NC1 hexamer from comb jelly (comb jelly (Mnemiopsis leidyi)); assay: SDS-PAGE (SDS resistance of the native hexamer); partially purified NC1 hexamer (SEC hexamer fraction); SDS-PAGE with 150 mM NaCl; sample at room temperature; Western blot with JK2 or TCE in-gel visualization
[15] = target: collagen IV NC1 domains of the NC1 hexamer from condylactis anemone (condylactis anemone (Condylactis gigantea)); assay: as above
[16] = target: collagen IV NC1 domains of the NC1 hexamer from fruit fly (fruit fly (Drosophila melanogaster)); assay: SDS-PAGE (SDS resistance of the native hexamer); purified NC1 hexamer; regular SDS-PAGE without Cl^− supplement; sample at room temperature, not boiled; Coomassie, TCE or Western blot
[17] = target: collagen IV NC1 domains of the NC1 hexamer from fruit fly (fruit fly (Drosophila melanogaster)); assay: SDS-PAGE (SDS resistance of the native hexamer); purified NC1 hexamer; Tris-glycine SDS-PAGE with 150 mM NaCl in running buffer and sample buffer; sample at room temperature, not boiled; Coomassie, TCE or Western blot
[18] = target: collagen IV NC1 domains of the NC1 hexamer from horseshoe crab flatworm (horseshoe crab flatworm (Bdelloura candida)); assay: SDS-PAGE (SDS resistance of the native hexamer); partially purified NC1 hexamer (SEC hexamer fraction); SDS-PAGE with 150 mM NaCl; sample at room temperature; Western blot with JK2 or TCE in-gel visualization
[19] = target: collagen IV NC1 domains of the NC1 hexamer from marmoset kidney (common marmoset (Callithrix jacchus)); assay: as above
[20] = target: collagen IV NC1 domains of the NC1 hexamer from moon jellyfish (moon jellyfish (Aurelia aurita)); assay: as above
[21] = target: collagen IV NC1 domains of the NC1 hexamer from mouse kidney (mouse (Mus musculus)); assay: SDS-PAGE (SDS resistance of the native hexamer); straight collagenase digest of tissue or animals; SDS-PAGE with 150 mM NaCl; sample at room temperature; Western blot with JK2
[22] = target: collagen IV NC1 domains of the NC1 hexamer from rotifers (rotifer (Brachionus plicatilis)); assay: SDS-PAGE (SDS resistance of the native hexamer); partially purified NC1 hexamer (SEC hexamer fraction); regular SDS-PAGE without Cl^− supplement; sample at room temperature; Western blot with JK2 or TCE in-gel visualization
[23] = target: collagen IV NC1 domains of the NC1 hexamer from rotifers (rotifer (Brachionus plicatilis)); assay: SDS-PAGE (SDS resistance of the native hexamer); partially purified NC1 hexamer (SEC hexamer fraction); SDS-PAGE with 150 mM NaCl; sample at room temperature; Western blot with JK2 or TCE in-gel visualization
[24] = target: collagen IV NC1 domains of the NC1 hexamer from starlet sea anemone (starlet sea anemone (Nematostella vectensis)); assay: as above

## collagen IV NC1 domains of the NC1 hexamer from American lobster (domain or fragment)
[1]
  stoichiometry N: 6
[2]
  stoichiometry N: 6

## collagen IV NC1 domains of the NC1 hexamer from Ascaris suum (domain or fragment)
[3]
  stoichiometry N: 6
[4]
  stoichiometry N: 6

## collagen IV NC1 domains of the NC1 hexamer from Caenorhabditis elegans (domain or fragment)
[5]
  stoichiometry N: 6
[6]
  stoichiometry N: 6

## collagen IV NC1 domains of the NC1 hexamer from brine shrimp (domain or fragment)
[7]
  stoichiometry N: 6
[8]
  stoichiometry N: 6

## collagen IV NC1 domains of the NC1 hexamer from brown planaria (domain or fragment)
[9]
  stoichiometry N: 6
[10]
  stoichiometry N: 6

## collagen IV NC1 domains of the NC1 hexamer from cicada (domain or fragment)
[11]
  stoichiometry N: 6
[12]
  stoichiometry N: 6

## collagen IV NC1 domains of the NC1 hexamer from comb jelly (domain or fragment)
[13]
  stoichiometry N: 6
[14]
  stoichiometry N: 6

## collagen IV NC1 domains of the NC1 hexamer from condylactis anemone (domain or fragment)
[15]
  stoichiometry N: 6

## collagen IV NC1 domains of the NC1 hexamer from fruit fly (domain or fragment)
[16]
  stoichiometry N: 6
[17]
  stoichiometry N: 6

## collagen IV NC1 domains of the NC1 hexamer from horseshoe crab flatworm (domain or fragment)
[18]
  stoichiometry N: 6

## collagen IV NC1 domains of the NC1 hexamer from marmoset kidney (domain or fragment)
[19]
  stoichiometry N: 6

## collagen IV NC1 domains of the NC1 hexamer from moon jellyfish (domain or fragment)
[20]
  stoichiometry N: 6

## collagen IV NC1 domains of the NC1 hexamer from mouse kidney (domain or fragment)
[21]
  stoichiometry N: 6

## collagen IV NC1 domains of the NC1 hexamer from rotifers (domain or fragment)
[22]
  stoichiometry N: 6
[23]
  stoichiometry N: 6

## collagen IV NC1 domains of the NC1 hexamer from starlet sea anemone (domain or fragment)
[24]
  stoichiometry N: 6
